These results are taken from paper PMC7509493.

In this assay the target is recombinant flounder IL-2 receptor beta, GST-tagged (GST-rfIL-2Rβ) (flounder (Paralichthys olivaceus)).

On to “recombinant flounder IL-2 protein, His-tagged (His-rfIL-2) (ligand)”, for which the percentage of CD4-1+ T lymphocytes in cultured flounder PBLs (FCM, 72 h), PHA + rfIL-2 after blocking with anti-rfIL-2Rβ polyclonal antibodies (order of 'respectively' assumed) worked out at 12.6%; the percentage of CD4-1+ T lymphocytes in cultured flounder PBLs (FCM, 72 h), PHA + rfIL-2 group without blocking antibodies stood at 19.2%; the percentage of CD4-1+ T lymphocytes in cultured flounder PBLs (FCM, 72 h), PHA + rfIL-2 with anti-rfIL-2 polyclonal antibodies (order of 'respectively' assumed) came to 7.2%; the percentage of CD4-2+ T lymphocytes in cultured flounder PBLs (FCM, 72 h), PHA + rfIL-2 after blocking with anti-rfIL-2Rβ polyclonal antibodies (order of 'respectively' assumed) was 11%. Moreover, the percentage of CD4-2+ T lymphocytes in cultured flounder PBLs (FCM, 72 h), PHA + rfIL-2 group without blocking antibodies came out at 14.5%; the percentage of CD4-2+ T lymphocytes in cultured flounder PBLs (FCM, 72 h), PHA + rfIL-2 with anti-rfIL-2 polyclonal antibodies (order of 'respectively' assumed) was 8.8%; the percentage of IL-2Rβ+ cells in cultured flounder PBLs (FCM, 72 h), PHA + rfIL-2 after blocking with anti-rfIL-2Rβ polyclonal antibodies was determined as 17.8%; the percentage of IL-2Rβ+ cells in cultured flounder PBLs (FCM, 72 h), PHA + rfIL-2 group without blocking antibodies worked out at 26.8%. The percentage of IL-2Rβ+ cells in cultured flounder PBLs (FCM, 72 h), PHA + rfIL-2 with anti-rfIL-2 polyclonal antibodies came to 13.3%.
